Laboratory results from paper PMC7605441.

Assays:
RAD51 [1] = target: RAD51 (UniProt Q08297); test: co-IP of RAD51AP1-mCherry, RAD51-GFP blotted; details: reference: wild type, asynchronous cells; sites T305
RAD51 [2] = target: RAD51 (UniProt Q08297); test: co-IP of RAD51-GFP, RAD51AP1-mCherry blotted; details: reference: wild type, asynchronous cells; sites T305

- other: percent reduction vs wild type (RAD51 [1]): 90%
- other: percent reduction vs wild type (RAD51 [2]): 62%
Substance: RAD51AP1 (from UniProt Q8C551) T305A
